Experiments:
[1] = NADH-coupled ATPase assay of ZRANB3 proteins; assay type: biochemical; conditions: 150 nM ZRANB3, 5 mM ATP, 0.5 μM flap DNA, 24 °C, average rates
Description: The NADH-coupled ATPase assay is based on a reaction in which the regeneration of hydrolysed ATP is coupled to the oxidation of NADH[59]. It was used as described, with minor modifications. ZRANB3 (150 nM) was added to a 150 μl reaction containing 25 mM Tris-Cl pH 7.5, 13 mM MgCl2, 1.8 mM DTT, 100 μg ml^−1 BSA, 3 mM phosphoenolpyruvate, 36 U ml^−1 pyruvate kinase, 20 U ml^−1 lactate dehydrogenase, 0.5 μM flap DNA, and 5 mM ATP, with 750 μM NADH added immediately before ZRANB3. Reactions were mixed for 1 min on a shaker at 23 °C and analysed by measuring A340 nm at 20 s intervals during 60 min, on a Spectramax 250 microplate spectrophotometer at 24 °C. Linear titration of freshly prepared NADH was performed to obtain a standard curve for units of absorbance mM^−1 NADH. ATPase rates were calculated from data collected between time points where product formation was linear with respect to time.

U2OS cells = assay: Colocalization of YFP-ZRANB3 foci with endogenous PCNA; assay type: cell-based; conditions: average of three experiments
Description: Figure 5 PCNA-dependent recruitment of ZRANB3. (a) Recruitment of FEN1 to the sites of laser induced DNA damage is abrogated by the mutations in the PIP box (Q337A, F343A and F344A). U2OS cells were transiently transfected with the indicated YFP constructs and analysed by live-cell imaging. Shown are representative images at the indicated time points post damage. (b) Recruitment of the YFP-tagged PIP box and APIM motif to the sites of laser induced DNA damage. Recruitment is abrogated by the mutations of the conserved residues in the PIP box and the APIM motif. […] The percentage of cells containing ZRANB3 foci that colocalize with PCNA was determined. […]
U2OS cells (ATCC) were seeded onto glass coverslips and transfected with the YFP constructs using Lipofectamine 2000 (Life Technologies). […] The coverslips were mounted in ProLong Gold anti-fade reagent with DAPI (Life Technologies) and analysed by confocal microscopy.
For the recruitment of ZRANB3 to stalled replication forks, U2OS cells were seeded onto glass coverslips and transfected with YFP-ZRANB3 constructs. […] Finally, the samples were analysed by confocal microscopy. For each experiment, more than 100 cells were counted, and the results from three independent transfections were pooled for statistical analyses.

B1: WT ZRANB3: full-length human ZRANB3, recombinant; YFP-tagged in the cell assay (protein)
chain: MPRVHNIKKSLTPHISCVTNESDNLLDFLPDRLRAKLLPFQKDGIIFALKRNGRCMVADEMGLGKTIQAIGITYFYKEEWPLLIVVPSSLRYPWTEEIEKWIPELSPEEINVIQNKTDVRRMSTSKVTVLGYGLLTADAKTLIDALNNQNFKVVIVDESHYMKSRNATRSRILLPIVQKARRAILLTGTPALGRPEELFMQIEALFPQKFGRWTDYAKRYCNAHIRYFGKRPQWDCRGASNLNELHQLLSDIMIRRLKTEVLTQLPPKVRQRIPFDLPSAAAKELNTSFEEWEKIMRTPNSGAMETVMGLITRMFKQTAIAKAGAVKDYIKMMLQNDSLKFLVFAHHLSMLQACTEAVIENKTRYIRIDGSVSSSERIHLVNQFQKDPDTRVAILSIQAAGQGLTFTAASHVVFAELYWDPGHIKQAEDRAHRIGQCSSVNIHYLIANGTLDTLMWGMLNRKAQVTGSTLNGRKEKIQAEEGDKEKWDFLQFAEAWTPNDSSEELRKEALFTHFEKEKQHDIRSFFVPQPKKRQLMTSCDESKRFREENTVVSSDPTKTAARDIIDYESDVEPETKRLKLAASEDHCSPSEETPSQSKQIRTPLVESVQEAKAQLTTPAFPVEGWQCSLCTYINNSELPYCEMCETPQGSAVMQIDSLNHIQDKNEKDDSQKDTSKKVQTISDCEKQALAQSEPGQLADSKEETPKIEKEDGLTSQPGNEQWKSSDTLPVYDTLMFCASRNTDRIHIYTKDGKQMSCNFIPLDIKLDLWEDLPASFQLKQYRSLILRFVREWSSLTAMKQRIIRKSGQLFCSPILALEEITKQQTKQNCTKRYITKEDVAVASMDKVKNVGGHVRLITKESRPRDPFTKKLLEDGACVPFLNPYTVQADLTVKPSTSKGYLQAVDNEGNPLCLRCQQPTCQTKQACKANSWDSRFCSLKCQEEFWIRSNNSYLRAKVFETEHGVCQLCNVNAQELFLRLRDAPKSQRKNLLYATWTSKLPLEQLNEMIRNPGEGHFWQVDHIKPVYGGGGQCSLDNLQTLCTVCHKERTARQAKERSQVRRQSLASKHGSDITRFLVKK
modifications: left off: His6, N-terminal, cleaved
notes: full-length human ZRANB3, recombinant; YFP-tagged in the cell assay
- ATP hydrolysis rate ([1]; A340 nm): 16.59 ± 0.34 µmol/L/min
- k [1]: 110.65 ± 2.27 min⁻¹
- cells that formed ZRANB3 foci (colocalizing with PCNA) (U2OS cells; U2OS cells transfected with YFP-ZRANB3, UV 40 J m^−2, 6 h recovery): > 95%
- cells that formed ZRANB3 foci (colocalizing with PCNA) (U2OS cells; U2OS cells transfected with YFP-ZRANB3, undamaged conditions): ~20%
